Some targets named below: human CD33 S186A (human, UniProt P20138 18-364); human CD33 L187A (human, UniProt P20138 18-364); human CD33 T191A (human, UniProt P20138 18-364); human CD33 T192A (human, UniProt P20138 18-364); human CD33 H193A (human, UniProt P20138 18-364); human CD33 T200A (human, UniProt P20138 18-364); human CD33 R202A (human, UniProt P20138 18-364); human CD33 N209A (human, UniProt P20138 18-364); human CD33 L210A (human, UniProt P20138 18-364); human CD33 G220A (human, UniProt P20138 18-364); human CD33 E224A (human, UniProt P20138 18-364); human CD33 V234A (human, UniProt P20138 18-364); human CD33 N237A (human, UniProt P20138 18-364); human CD33 P238A (human, UniProt P20138 18-364); human CD33 I242A (human, UniProt P20138 18-364); human CD33 Q171A (human, UniProt P20138 18-364).

Common to all, as to experiment: alanine scan, flow cytometry, HEK293-T;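 further: antibody binding to each alanine-substituted CD33 mutant expressed transiently in HEK293-T, read as fluorescence minus background, mean of duplicates, relative to wild-type CD33 set as 100%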
A general note: In flow cytometry, cells or beads pass a laser one at a time.

In another assay the target is T1, human CD33 I198A (human, UniProt P20138 18-364).
T1 construct: the '-,' is not explained
T1 sequence (P20138 18-364 I198A limits assumed): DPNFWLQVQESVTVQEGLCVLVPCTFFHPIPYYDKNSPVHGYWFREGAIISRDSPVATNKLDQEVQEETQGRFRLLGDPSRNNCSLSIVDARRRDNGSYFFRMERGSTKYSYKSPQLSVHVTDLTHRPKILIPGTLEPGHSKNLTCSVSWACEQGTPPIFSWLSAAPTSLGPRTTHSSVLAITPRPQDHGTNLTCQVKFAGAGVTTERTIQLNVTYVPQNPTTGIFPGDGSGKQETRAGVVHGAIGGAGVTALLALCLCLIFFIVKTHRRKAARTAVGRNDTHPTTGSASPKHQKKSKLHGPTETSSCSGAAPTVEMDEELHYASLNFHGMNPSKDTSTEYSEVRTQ

Sequence of human CD33 E224A (P20138 18-364 E224A limits assumed): as the sequence (P20138 18-364 I198A limits assumed) above, with A181I, E207A counted along it
Sequence of human CD33 I242A (P20138 18-364 I242A limits assumed): as the sequence (P20138 18-364 I198A limits assumed) above, with A181I, I225A counted along it
Sequence of human CD33 N209A (P20138 18-364 N209A limits assumed): as the sequence (P20138 18-364 I198A limits assumed) above, with A181I, N192A counted along it
Sequence of human CD33 H193A (P20138 18-364 H193A limits assumed): as the sequence (P20138 18-364 I198A limits assumed) above, with H176A, A181I counted along it
Sequence of human CD33 Q171A (P20138 18-364 Q171A limits assumed): as the sequence (P20138 18-364 I198A limits assumed) above, with Q154A, A181I counted along it
Sequence of human CD33 L187A (P20138 18-364 L187A limits assumed): as the sequence (P20138 18-364 I198A limits assumed) above, with L170A, A181I counted along it
Sequence of human CD33 G220A (P20138 18-364 G220A limits assumed): as the sequence (P20138 18-364 I198A limits assumed) above, with A181I, G203A counted along it
Sequence of human CD33 T191A (P20138 18-364 T191A limits assumed): as the sequence (P20138 18-364 I198A limits assumed) above, with T174A, A181I counted along it
Sequence of human CD33 T192A (P20138 18-364 T192A limits assumed): as the sequence (P20138 18-364 I198A limits assumed) above, with T175A, A181I counted along it
Sequence of human CD33 R202A (P20138 18-364 R202A limits assumed): as the sequence (P20138 18-364 I198A limits assumed) above, with A181I, R185A counted along it
Sequence of human CD33 N237A (P20138 18-364 N237A limits assumed): as the sequence (P20138 18-364 I198A limits assumed) above, with A181I, N220A counted along it
Sequence of human CD33 V234A (P20138 18-364 V234A limits assumed): as the sequence (P20138 18-364 I198A limits assumed) above, with A181I, V217A counted along it
Sequence of human CD33 T200A (P20138 18-364 T200A limits assumed): as the sequence (P20138 18-364 I198A limits assumed) above, with A181I, T183A counted along it
Sequence of human CD33 L210A (P20138 18-364 L210A limits assumed): as the sequence (P20138 18-364 I198A limits assumed) above, with A181I, L193A counted along it
Sequence of human CD33 P238A (P20138 18-364 P238A limits assumed): as the sequence (P20138 18-364 I198A limits assumed) above, with A181I, P221A counted along it
Sequence of human CD33 S186A (P20138 18-364 S186A limits assumed): as the sequence (P20138 18-364 I198A limits assumed) above, with S169A, A181I counted along it
Method for human CD33 E224A: (§1) An alanine scan on human CD33 was performed to the determine the residues on CD33 that are involved in binding to the antibodies investigated. […] Briefly, a mutation library of CD33 was created by high-throughput, site-directed mutagenesis. Each residue was individually mutated to alanine, with alanine codons mutated to serine. The mutant library was arrayed in 384-well microplates and transiently transfected into HEK293-T. Following transfection, cells were incubated with the indicated antibodies (IgG or Fab) at concentrations pre-determined using an independent immunofluorescence titration curve on wild type CD33. […] Binding of each antibody to each mutant clone was determined in duplicates. For each point, background fluorescence was subtracted from the raw data, which were then normalized to antibody reactivity with wild type CD33.
(§2) Critical residues for antibody binding (outlined in dark grey) were residues whose mutations led to a binding of the test Abs of less than 20%. Additional secondary residues (outlined in light grey) were identified that led to a binding of the test Abs of between 20 and 40% as compared to the wild type CD33.
Method for human CD33 G220A: as §1, §2
Method for human CD33 H193A: as §1, §2
Method for human CD33 I198A: as §1, §2
Method for human CD33 I242A: as §1, §2
Method for human CD33 L187A: as §1, §2
Method for human CD33 L210A: as §1, §2
Method for human CD33 N209A: as §1, §2
Method for human CD33 N237A: as §1, §2
Method for human CD33 P238A: as §1, §2
Method for human CD33 Q171A: as §1, §2
Method for human CD33 R202A: as §1, §2
Method for human CD33 S186A: as §1, §2
Method for human CD33 T191A: as §1, §2
Method for human CD33 T192A: as §1, §2
Method for human CD33 T200A: as §1, §2
Method for human CD33 V234A: as §1, §2

B1: Refmab #1 (antibody, V domains shown)
VH: EVQLVQSGAEVKKPGSSVKVSCKASGYTITDSNIHWVRQAPGQSLEWIGYIYPYNGGTDYNQKFKNRATLTVDNPTNTAYMELSSLRSEDTAFYYCVNGNPWLAYWGQGTLVTVSS
VL: DIQLTQSPSTLSASVGDRVTITCRASESLDNYGIRFLTWFQQKPGKAPKLLMYAASNQGSGVPSRFSGSGSGTEFTLTISSLQPDDFATYYCQQTKEVPWSFGQGTKVEVK
notes: In the alanine scan antibodies were used as IgG or Fab; also called hP67.6
On to B1, for which the “Mean % WT Binding” value in the assay with human CD33 S186A was 92.5%; with human CD33 L187A, 92.3%; with human CD33 T191A it was 91.4%; with human CD33 T192A, 101%; in the assay with human CD33 H193A, 99.9%; in the assay with human CD33 I198A, 86.7%. In addition, the “Mean % WT Binding” value with human CD33 T200A is 85.2%; with human CD33 R202A, 86.7%; with human CD33 N209A, 92.1%; with human CD33 L210A, 93%; in the assay with human CD33 G220A, 104%; in the assay with human CD33 E224A it was 95.4%. In addition, the “Mean % WT Binding” value with human CD33 V234A was found to be 85.8%; with human CD33 N237A, 98.7%; with human CD33 P238A, 101%; with human CD33 I242A, 77.9%; with human CD33 Q171A, 90.8%.

B2: Refmab #4 (antibody, V domains shown)
VH: QVQLVQSGAEVKKPGESVKVSCKASGYTFTNYGMNWVKQAPGQGLEWMGWINTYTGEPTYADKFQGRVTMTTDTSTSTAYMEIRNLGGDDTAVYYCARWSWSDGYYVYFDYWGQGTSVTVSS
VL: DIVMTQSPDSLTVSLGERTTINCKSSQSVLDSSTNKNSLAWYQQKPGQPPKLLLSWASTRESGIPDRFSGSGSGTDFTLTIDSPQPEDSATYYCQQSAHFPITFGQGTRLEIK
notes: In the alanine scan antibodies were used as IgG or Fab
B2: the “Mean % WT Binding” value with human CD33 S186A was determined as 121%; with human CD33 L187A it was 108%; with human CD33 T191A, 95.1%; with human CD33 T192A it was 99.7%; with human CD33 H193A, 103%; in the assay with human CD33 I198A, 94.4%. Besides, the “Mean % WT Binding” value with human CD33 T200A amounted to 88.8%; in the assay with human CD33 R202A, 88.7%; with human CD33 N209A, 88.1%; with human CD33 L210A, 92.3%; with human CD33 G220A, 115%; with human CD33 E224A it was 107%. For the same molecule, the “Mean % WT Binding” value in the assay with human CD33 V234A turned out to be 107%; with human CD33 N237A it was 72.9%; with human CD33 P238A it was 117%; in the assay with human CD33 I242A, 104%; with human CD33 Q171A, 102%.

B3: Refmab #2 (antibody, V domains shown)
VH: QVQLVQSGAEVKKPGSSVKVSCKASGGTFSDYAISWVRQAPGQGLEWMGRIIPILGVADYAQKFQGRVTITADKSTRTAYMELSSLRSEDTAVYYCARNWADAFDIWGQGTMVTVSS
VL: DIQLTQSPSSLSASVGDRVTITCRASQGISSVLAWYQQKPGKAPKLLIYDASSLESGVPSRFSGSGSGTDFTLTISSLQPEDFATYYCQQFDSSITFGQGTKLEIK
notes: as for B2
For the molecule B3, the “Mean % WT Binding” value in the assay with human CD33 S186A turned out to be 120%; with human CD33 L187A it was 144%; with human CD33 T191A, 114%; with human CD33 T192A it was 119%; in the assay with human CD33 H193A it was 122%; in the assay with human CD33 I198A, 114%. Moreover, the “Mean % WT Binding” value in the assay with human CD33 T200A was found to be 111%; in the assay with human CD33 R202A it was 112%; in the assay with human CD33 N209A, 104%; with human CD33 L210A it was 98.2%; with human CD33 G220A, 132%; with human CD33 E224A, 102%. The “Mean % WT Binding” value stood at 117% in the assay with human CD33 V234A; 112% with human CD33 N237A; 119% with human CD33 P238A; 98.6% with human CD33 I242A; 90% in the assay with human CD33 Q171A.

B4: Refmab #3 (antibody, V domains shown)
VH: QVQLVQSGAEVKKPGSSVKVSCKASGYTFTDYNMHWVRQAPGQGLEWIGYIYPYNGGTGYNQKFKSKATITADESTNTAYMELSSLRSEDTAVYYCARGRPAMDYWGQGTLVTVSS
VL: DIQMTQSPSSLSASVGDRVTITCRASESVDNYGISFMNWFQQKPGKAPKLLIYAASNQGSGVPSRFSGSGSGTDFTLTISSLQPDDFATYYCQQSKEVPWTFGQGTKVEIK
notes: as for B2
For B4, the “Mean % WT Binding” value in the assay with human CD33 S186A turned out to be 106%; in the assay with human CD33 L187A, 95.5%; in the assay with human CD33 T191A it was 80%; with human CD33 T192A, 102%; with human CD33 H193A, 92%; with human CD33 I198A, 91.2%. The “Mean % WT Binding” value was 82.4% in the assay with human CD33 T200A; 128% in the assay with human CD33 R202A; 91.7% in the assay with human CD33 N209A; 84% with human CD33 L210A; 114% with human CD33 G220A; 83.2% with human CD33 E224A. Moreover, the “Mean % WT Binding” value turned out to be 88.7% in the assay with human CD33 V234A; 85.6% in the assay with human CD33 N237A; 122% in the assay with human CD33 P238A; 128% in the assay with human CD33 I242A; 138% with human CD33 Q171A.

(Values after patent US20260242735A1 (UNIVERSIT T BASEL, published 2026).)
